In paper doi:10.1101/2020.04.14.040436:

Assays:
[1] = biological target: His6-tagged 14-3-3ε (human) (UniProt P62258); experiment: SPR
[2] = biological target: 14-3-3ε/γ heterodimer (His6-tagged 14-3-3ε with untagged 14-3-3γ) (human) (UniProt P62258); experiment: SPR
[3] = biological target: human 14-3-3ε devoid of the C-terminal flexible tail (14-3-3εΔC) (human); experiment: SEC
human 14-3-3ε devoid of the C-terminal flexible tail (14-3-3εΔC) (human), sequence (B3KY71 whole entry, stated change not applied): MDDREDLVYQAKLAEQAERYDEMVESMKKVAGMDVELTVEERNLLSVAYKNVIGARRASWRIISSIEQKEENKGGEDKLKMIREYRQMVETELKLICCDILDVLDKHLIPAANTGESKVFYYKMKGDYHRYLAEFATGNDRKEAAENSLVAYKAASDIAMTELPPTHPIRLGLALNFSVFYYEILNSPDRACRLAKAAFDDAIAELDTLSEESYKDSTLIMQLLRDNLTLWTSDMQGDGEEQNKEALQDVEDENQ

- Kd [1]: 13 µM
- Kd [2]: 15 µM
- stoichiometry N (STARD1 per 14-3-3 subunit (2:2)) [3]: 1
- stoichiometry N ([3]; scale: STARD1 per 14-3-3 subunit): 0.5
B1: STARD1_(46-285)-S56A/L59P phosphorylated at Ser57 and Ser195 (domain or fragment)
chain: STWINQVRRRASLPGSRLEETLYSDQELAYLQQGEEAMQKALGILSNQEGWKKESQQDNGDKVMSKVVPDVGKVFRLEVVVDQPMERLYEELVERMEAMGEWNPNVKEIKVLQKIGKDTFITHELAAEAAGNLVGPRDFVSVRCAKRRGSTCVLAGMATDFGNMPEQKGVIRAEHGPTCMVLHPLAGSPSKTKLTWLLSIDLKGWLPKSIINQVLSQTQVDFANHLRKRLESHPASEARC
modifications: phosphoserine at 57; phosphoserine at 195
